Patent US20120316071A1 (published 2012)

Target: T1, Recombinant Human DLL4 (delta-like protein 4) (human, UniProt Q9NR61 27-524)
T1 construct: also called rHuman DLL4; Delta-like 4
Assay: ELISA, DLL4 coated on plate, Fab at 100 nM

Binder	ELISA Signal-blank (100 nM Fab)
Fab VH5-51_IGHD5-18*01>3_IGHJ4*01 G100K/G104T G24T/S28R/G35V & V3-4_IGLJ1*01 V91L/S96P S52F (Fab, V domains shown, Fab expressed in E. coli; heavy chain vector adds CH1 with His6 and Flag tags, light chain vector adds lambda CL; also called H:KT TRV & L:LP S52F) VH: EVQLVQSGAEVKKPGESLKISCKTSGYRFTSYWIVWVRQMPGKGLEWMGIIYPGDSDTRYSPSFQGQVTISADKSISTAYLQWSSLKASDTAMYYCARRKYSYTYDYFDYWGQGTLVTVSS VL: QTVVTQEPSFSVSPGGTVTLTCGLSSGSVSTSYYPSWYQQTPGQAPRTLIYFTNTRSSGVPDRFSGSILGNKAALTITGAQADDESDYYCLLYMGPGISYVFGTGTKVTVL	0.33
Fab VH5-51_IGHD5-18*01>3_IGHJ4*01 G100K/G104T G24T/S28R/G35V & V3-4_IGLJ1*01 V91L/S96P S52L (Fab, V domains shown, Fab expressed in E. coli; heavy chain vector adds CH1 with His6 and Flag tags, light chain vector adds lambda CL; also called H:KT TRV & L:LP S52L) VH: EVQLVQSGAEVKKPGESLKISCKTSGYRFTSYWIVWVRQMPGKGLEWMGIIYPGDSDTRYSPSFQGQVTISADKSISTAYLQWSSLKASDTAMYYCARRKYSYTYDYFDYWGQGTLVTVSS VL: QTVVTQEPSFSVSPGGTVTLTCGLSSGSVSTSYYPSWYQQTPGQAPRTLIYLTNTRSSGVPDRFSGSILGNKAALTITGAQADDESDYYCLLYMGPGISYVFGTGTKVTVL	0.4
Fab VH5-51_IGHD5-18*01>3_IGHJ4*01 G100K/G104T G24T/S28R/G35V & V3-4_IGLJ1*01 V91L/S96P S52M (Fab, V domains shown, Fab expressed in E. coli; heavy chain vector adds CH1 with His6 and Flag tags, light chain vector adds lambda CL; also called H:KT TRV & L:LP S52M) VH: EVQLVQSGAEVKKPGESLKISCKTSGYRFTSYWIVWVRQMPGKGLEWMGIIYPGDSDTRYSPSFQGQVTISADKSISTAYLQWSSLKASDTAMYYCARRKYSYTYDYFDYWGQGTLVTVSS VL: QTVVTQEPSFSVSPGGTVTLTCGLSSGSVSTSYYPSWYQQTPGQAPRTLIYMTNTRSSGVPDRFSGSILGNKAALTITGAQADDESDYYCLLYMGPGISYVFGTGTKVTVL	0.46
Fab VH5-51_IGHD5-18*01>3_IGHJ4*01 G100K/G104T G24T/S28R/G35V & V3-4_IGLJ1*01 V91L/S96P T53F (Fab, V domains shown, Fab expressed in E. coli; heavy chain vector adds CH1 with His6 and Flag tags, light chain vector adds lambda CL; also called H:KT TRV & L:LP T53F) VH: EVQLVQSGAEVKKPGESLKISCKTSGYRFTSYWIVWVRQMPGKGLEWMGIIYPGDSDTRYSPSFQGQVTISADKSISTAYLQWSSLKASDTAMYYCARRKYSYTYDYFDYWGQGTLVTVSS VL: QTVVTQEPSFSVSPGGTVTLTCGLSSGSVSTSYYPSWYQQTPGQAPRTLIYSFNTRSSGVPDRFSGSILGNKAALTITGAQADDESDYYCLLYMGPGISYVFGTGTKVTVL	0.15
Fab VH5-51_IGHD5-18*01>3_IGHJ4*01 G100K/G104T G24T/S28R/G35V & V3-4_IGLJ1*01 V91L/S96P S52H (Fab, V domains shown, Fab expressed in E. coli; heavy chain vector adds CH1 with His6 and Flag tags, light chain vector adds lambda CL; also called H:KT TRV & L:LP S52H) VH: EVQLVQSGAEVKKPGESLKISCKTSGYRFTSYWIVWVRQMPGKGLEWMGIIYPGDSDTRYSPSFQGQVTISADKSISTAYLQWSSLKASDTAMYYCARRKYSYTYDYFDYWGQGTLVTVSS VL: QTVVTQEPSFSVSPGGTVTLTCGLSSGSVSTSYYPSWYQQTPGQAPRTLIYHTNTRSSGVPDRFSGSILGNKAALTITGAQADDESDYYCLLYMGPGISYVFGTGTKVTVL	0.44
Fab VH5-51_IGHD5-18*01>3_IGHJ4*01 G100K/G104T G24T/S28R/G35V & V3-4_IGLJ1*01 V91L/S96P S52T (Fab, V domains shown, Fab expressed in E. coli; heavy chain vector adds CH1 with His6 and Flag tags, light chain vector adds lambda CL; also called H:KT TRV & L:LP S52T) VH: EVQLVQSGAEVKKPGESLKISCKTSGYRFTSYWIVWVRQMPGKGLEWMGIIYPGDSDTRYSPSFQGQVTISADKSISTAYLQWSSLKASDTAMYYCARRKYSYTYDYFDYWGQGTLVTVSS VL: QTVVTQEPSFSVSPGGTVTLTCGLSSGSVSTSYYPSWYQQTPGQAPRTLIYTTNTRSSGVPDRFSGSILGNKAALTITGAQADDESDYYCLLYMGPGISYVFGTGTKVTVL	0.34
Fab VH5-51_IGHD5-18*01>3_IGHJ4*01 G100K/G104T G24T/S28R/G35V & V3-4_IGLJ1*01 V91L/S96P S52P (Fab, V domains shown, Fab expressed in E. coli; heavy chain vector adds CH1 with His6 and Flag tags, light chain vector adds lambda CL; also called H:KT TRV & L:LP S52P) VH: EVQLVQSGAEVKKPGESLKISCKTSGYRFTSYWIVWVRQMPGKGLEWMGIIYPGDSDTRYSPSFQGQVTISADKSISTAYLQWSSLKASDTAMYYCARRKYSYTYDYFDYWGQGTLVTVSS VL: QTVVTQEPSFSVSPGGTVTLTCGLSSGSVSTSYYPSWYQQTPGQAPRTLIYPTNTRSSGVPDRFSGSILGNKAALTITGAQADDESDYYCLLYMGPGISYVFGTGTKVTVL	0.32
Fab VH5-51_IGHD5-18*01>3_IGHJ4*01 G100K/G104T G24T/S28R/G35V & V3-4_IGLJ1*01 V91L/S96P T53H (Fab, V domains shown, Fab expressed in E. coli; heavy chain vector adds CH1 with His6 and Flag tags, light chain vector adds lambda CL; also called H:KT TRV & L:LP T53H) VH: EVQLVQSGAEVKKPGESLKISCKTSGYRFTSYWIVWVRQMPGKGLEWMGIIYPGDSDTRYSPSFQGQVTISADKSISTAYLQWSSLKASDTAMYYCARRKYSYTYDYFDYWGQGTLVTVSS VL: QTVVTQEPSFSVSPGGTVTLTCGLSSGSVSTSYYPSWYQQTPGQAPRTLIYSHNTRSSGVPDRFSGSILGNKAALTITGAQADDESDYYCLLYMGPGISYVFGTGTKVTVL	0.14
Fab VH5-51_IGHD5-18*01>3_IGHJ4*01 G100K/G104T G24T/S28R/G35V & V3-4_IGLJ1*01 V91L/S96P S52W (Fab, V domains shown, Fab expressed in E. coli; heavy chain vector adds CH1 with His6 and Flag tags, light chain vector adds lambda CL; also called H:KT TRV & L:LP S52W) VH: EVQLVQSGAEVKKPGESLKISCKTSGYRFTSYWIVWVRQMPGKGLEWMGIIYPGDSDTRYSPSFQGQVTISADKSISTAYLQWSSLKASDTAMYYCARRKYSYTYDYFDYWGQGTLVTVSS VL: QTVVTQEPSFSVSPGGTVTLTCGLSSGSVSTSYYPSWYQQTPGQAPRTLIYWTNTRSSGVPDRFSGSILGNKAALTITGAQADDESDYYCLLYMGPGISYVFGTGTKVTVL	0.29
Fab VH5-51_IGHD5-18*01>3_IGHJ4*01 G100K/G104T G24T/S28R/G35V & V3-4_IGLJ1*01 V91L/S96P T53D (Fab, V domains shown, Fab expressed in E. coli; heavy chain vector adds CH1 with His6 and Flag tags, light chain vector adds lambda CL; also called H:KT TRV & L:LP T53D) VH: EVQLVQSGAEVKKPGESLKISCKTSGYRFTSYWIVWVRQMPGKGLEWMGIIYPGDSDTRYSPSFQGQVTISADKSISTAYLQWSSLKASDTAMYYCARRKYSYTYDYFDYWGQGTLVTVSS VL: QTVVTQEPSFSVSPGGTVTLTCGLSSGSVSTSYYPSWYQQTPGQAPRTLIYSDNTRSSGVPDRFSGSILGNKAALTITGAQADDESDYYCLLYMGPGISYVFGTGTKVTVL	0.16
Fab VH5-51_IGHD5-18*01>3_IGHJ4*01 G100K/G104T G24T/S28R/G35V & V3-4_IGLJ1*01 V91L/S96P T53E (Fab, V domains shown, Fab expressed in E. coli; heavy chain vector adds CH1 with His6 and Flag tags, light chain vector adds lambda CL; also called H:KT TRV & L:LP T53E) VH: EVQLVQSGAEVKKPGESLKISCKTSGYRFTSYWIVWVRQMPGKGLEWMGIIYPGDSDTRYSPSFQGQVTISADKSISTAYLQWSSLKASDTAMYYCARRKYSYTYDYFDYWGQGTLVTVSS VL: QTVVTQEPSFSVSPGGTVTLTCGLSSGSVSTSYYPSWYQQTPGQAPRTLIYSENTRSSGVPDRFSGSILGNKAALTITGAQADDESDYYCLLYMGPGISYVFGTGTKVTVL	0.09
